The record followed here is US20240165252A1, “ANTIBODY-DRUG CONJUGATE AND MEDICAL USE THEREOF” (Shanghai Hansoh Biomedical Co., Ltd., priority 2021, published 2024).

Positions count from the first letter of the chain named.

Test [1] deals with BCMA expressed on cells (HEK-293T cells overexpressing BCMA; NCI-H929 tumor cells) (human) (UniProt Q02223). The test is described as follows: cell-based or functional assay.
The target of test [2] is T1, BCMA expressed on cells (HEK-293T cells overexpressing BCMA; NCI-H929 tumor cells) (human, UniProt Q02223 1-184).
T1 construct: whole, on cells; also called HEK-293T/BCMA cells; NCI-H929 cells
T1 sequence (looked up): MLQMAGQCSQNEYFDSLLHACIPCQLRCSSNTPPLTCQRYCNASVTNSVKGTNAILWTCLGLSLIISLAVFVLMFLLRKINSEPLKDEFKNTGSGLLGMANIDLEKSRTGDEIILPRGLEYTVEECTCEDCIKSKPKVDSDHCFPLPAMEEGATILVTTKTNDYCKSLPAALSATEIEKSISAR
The test is described as follows: flow cytometry on HEK-293T/BCMA cells. How it is done:
(§1) The cultured cells with high BCMA expression (HEK-293T cells overexpressing BCMA; tumor cells expressing BCMA, NCI-H929) were collected. The cell density was adjusted and the cells were plated on a 96-well U-bottomed plate at 1×10⁵ to 2×10⁵ cells per well. The plate was centrifuged at 1200 g for 5 min and the supernatant was removed. 100 μl of gradient diluted antibody solution or mouse immunized serum was added and incubated at 4° C. for 60 min. The plate was centrifuged at 1200 g for 5 min and the supernatant was removed. The cells were washed twice with PBS. A fluorescently labeled secondary antibody (PE-GAH or PE-GAM) was added at 100 μl per well and incubated at 4° C. for 60 min. The plate was centrifuged at 1200 g for 5 min and the supernatant was removed. The cells were washed twice with PBS and then re-suspended in PBS. The signal was detected by using a flow cytometer, and a concentration curve was plotted for result analysis.
Background: In flow cytometry, cells or beads pass a laser one at a time.

Test [3] addresses T1, BCMA expressed on cells (HEK-293T cells …). The test is described as follows: flow cytometry on NCI-H929 cells. The procedure:
as §1

The target of test [4] is T2, His-tagged extracellular domain of human BCMA (BCMA-His) (human).
T2 construct: Bought protein; also called BCMA His protein; human BCMA His antigen
T2 chain: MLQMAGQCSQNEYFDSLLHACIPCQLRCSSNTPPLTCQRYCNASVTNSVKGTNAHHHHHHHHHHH
The test is described as follows: indirect ELISA, BCMA His coated on plate. How it is done:
(§2) After washing, the plate 4 times with PBST (pH 7.4 PBS containing 0.05% Tween-20), 3% bovine serum albumin (BSA) blocking solution diluted with PBST was added at 150 μl/well and incubated at room temperature for 1 hour for blocking. After completion of the blocking, the blocking solution was discarded, and the plate was washed 4 times with PBST buffer.
(§3) The antibody to be tested was 10-fold gradient diluted with PBST containing 3% BSA with the initial concentration of 1 μM to obtain 10 dilutions which were added to the microtiter plate at 100 μl/well and incubated at room temperature for 1 hour. After completion of the incubation, the plate was washed 4 times with PBST. HRP-labeled goat-anti-human secondary antibody (Abcam, Cat #ab97225) diluted with PBST containing 3% BSA was added at 100 μl/well and incubated at room temperature for 1 hour. The plate was washed 4 times with PBST, and then TMB chromogenic substrate (Cell Signaling Technology, cat #7004S) was added at 100 μl/well and incubated at room temperature in the dark for 1 minute. The stop solution (Cell Signaling Technology, cat #7002S) was added at 100 μl/well to terminate the reaction. The absorbance value at 450 nm was read with a microplate reader (BioTek, model Synergy H1). The data were analyzed.

Test [5] deals with T1, BCMA expressed on cells (HEK-293T cells …). Put plainly: cell-based or functional assay.
Test [6] deals with T2, His-tagged extracellular domain of …. Put plainly: indirect ELISA, BCMA-His coated on plate. The procedure: as §2, §3
In general terms: ELISA stands for enzyme-linked immunosorbent assay.

Test [7] concerns the target T1, BCMA expressed on cells (HEK-293T cells …). Put plainly: cell-based or functional assay. This is another data set of the same source.

Regarding IgG1 iso ADC (y = 4) (antibody), the Killing Effect (IC50 nM) NCI-H929 in test [1] is over 133 nM.

B1: murine monoclonal antibody M1 (antibody, V domains shown)
VH: QVQLQQSGAELVRPGASVKLSCKALGYSFSDYEMHWVRQTPVHGLEWIGGIHPGSGGSAYNQKFKGKATLTVDKSSSTAYMELSSLTSEDSAVYYCTRLDYGYSWAWFPYWGQGTLVTVSA
VL: EILLTQSPAIIVTSPGEKVTITCSASSSVIYMNWYQQKPGSSPKIWIYGISNLASGVPARFSGSGSGTSFSFTINSMEAEDVATYYCQQRSSYPLTFGAGTKLELK
notes: It is a hybridoma-derived murine antibody, yet the ELISA protocol names a goat-anti-human secondary antibody; also called murine antibody M1
B1: the EC50 was determined as 115 nM in test [2], 128 nM in test [3] and 0.53 nM in test [4].

B2: humanized anti-BCMA antibody Ab2 (antibody, human IgG1, kappa, V domains shown)
VH: QVQLVQSGAEVKKPGASVKVSCKASGYSFSDYEMHWVRQAPGQGLEWIGGIHPGSGGSAYNQKFKGRVTLTVDKSTSTAYMELSSLRSEDTAVYYCTRLDYGYSWAWFPYWGQGTLVTVSA
VL: EIVLTQSPATLSLSPGERATLSCSASSSVIYMNWYQQKPGQSPKIWIYGISNLASGVPARFSGSGSGTDFTLTISSLEPEDFAVYYCQQRSSYPLTFGGGTKVEIKR
notes: Human IgG1/kappa, expressed in HEK293 cells
As to B2, the EC50 in test [3] was 3.5 nM. In addition, in test [5], the “Endocytosis efficiency %, 0.5 hour” value turned out to be 36.7% and the “Endocytosis efficiency %, 2 hours” value turned out to be 48%. In test [6], the EC50 worked out at 0.033 nM.

B3: antibody drug conjugate ADC2 (y = 4) (antibody, human IgG1, kappa, V domains shown)
VH: B2 VH
VL: B2 VL
modifications: Linker-drug compound D (exatecan derivative) coupled to Ab2 after TCEP reduction. Average load y = 4 per antibody. Sites not stated.
Take B3: the “Killing Effect (IC50 nM) NCI-H929” value in test [7] worked out at 0.76 nM.

B4: humanized anti-BCMA antibody Ab1 (antibody, human IgG1, kappa, V domains shown)
VH: B2 VH with I48M, L70M, V72R, K74T, A79V
VL: B2 VL with S42A, K44R, I45L, W46L, V57I
notes: as for B2
In the case of B4, the EC50 in test [3] is 4.6 nM. Moreover, in test [5], the “Endocytosis efficiency %, 0.5 hour” value was found to be 36.6% and the “Endocytosis efficiency %, 2 hours” value was 49.5%. Further, the EC50 in test [6] turned out to be 0.022 nM.

B5: humanized anti-BCMA antibody Ab3 (antibody, human IgG1, kappa, V domains shown)
VH: B2 VH with R67K, V68A
VL: B2 VL with V3L, S22T, Q41S, D69S
notes: as for B2
Regarding B5, the EC50 in test [3] turned out to be 3.9 nM. In test [5], the “Endocytosis efficiency %, 0.5 hour” value came to 35.5% and the “Endocytosis efficiency %, 2 hours” value was determined as 45.7%. For the same molecule, the EC50 in test [6] came out at 0.034 nM.

The EC50 is the concentration needed to bring the measured effect to its halfway point.
